For 99 substances, amyloid nucleation score results are on record in the supplement of paper PMC12042874.

± gives the uncertainty stated by the source.

This series is described as follows: amyloid nucleation score (Sup35N fusion, yeast selection) (log enrichment); library NNK3; higher = more nucleation; inactive = no reads after selection. Summed up:
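DiMSum was used to calculate nucleation scores as log enrichment of output over input reads, centred on the mode score of non-aggregating sequences. Sequences with fewer than 100 input reads were not scored. Input and output came from Illumina sequencing of plasmid inserts in psi-negative yeast expressing peptides of 20 random codons fused to Sup35N, induced 24 hours with 100 μM copper sulfate and then grown 7 days at 30°C on medium lacking adenine and uracil.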
As for SGNDISCPATSIHFRVGVRS, the amyloid nucleation score result is “inactive”.

Take VPVRSSYMTEMYVCSGISPR: the amyloid nucleation score result is “inactive”.

Regarding LLLFRGAYRLQISAFCLCTE, the amyloid nucleation score result was “inactive”.

Consider TYFILKETATDLN, for which the amyloid nucleation score result was “inactive”.

Consider YVFSTWSSP, for which the amyloid nucleation score entry was “inactive”.

With YFLGRVRK, the amyloid nucleation score entry was “inactive”.

TCLNGLVESRLAGFYHLRGP: the amyloid nucleation score entry is “inactive”.

As to IDQDFMTVIRQS, the amyloid nucleation score result was “inactive”.

With YIFDMSTGQDSMVY, the amyloid nucleation score entry was “inactive”.

As to VKKSDWAVGLVDSDQCVHFD, the amyloid nucleation score result was “inactive”.

Regarding FVSILLYYMPVNCLNRKTIN, the amyloid nucleation score entry is “inactive”.

KVTYFKSMMHYDNMQSSVRC: the amyloid nucleation score result was “inactive”.

Turning to DACTVVCVCIQSIRGSQVSC, the amyloid nucleation score amounted to 1.09 ± 0.15.

As to IKPSMQIILWFGLERYSRAW, the amyloid nucleation score is -0.308 ± 0.6.

Consider CSNAGTCPCLCYRAILDQWV, for which the amyloid nucleation score was -0.401 ± 0.84.

Take CEFWNKYSNLWIWGWL: the amyloid nucleation score stood at 0.51 ± 0.31.

For SIKSSISIFKYF, the amyloid nucleation score result was “inactive”.

On to KRDTSWLPVCNSGLSQCRKR, for which the amyloid nucleation score result was “inactive”.

As for RAWVLHCGNGYWYPLGQ, the amyloid nucleation score entry was “inactive”.

As to SLAINSYVCMYIHFQTTMRD, the amyloid nucleation score result was “inactive”.

Consider MYFMGLFFMTGVGFSMKEVE, for which the amyloid nucleation score entry was “inactive”.

As to DSGLCV, the amyloid nucleation score result is “inactive”.

Regarding NRAVNFIVWWMYL, the amyloid nucleation score entry is “inactive”.

As for IQYIMTNLGPDYNRFEYM, the amyloid nucleation score entry was “inactive”.

Consider LKRNVNYVNLNVFRLFLK, for which the amyloid nucleation score entry is “inactive”.

Consider FGFRCWLFWS, for which the amyloid nucleation score result was “inactive”.

Regarding KSGYCNKCMNGFSGTLTSNY, the amyloid nucleation score result is “inactive”.

On to CYPVSVQYNGV, for which the amyloid nucleation score entry is “inactive”.

For the substance NLYLSDNVCRVMKASVWVHA, the amyloid nucleation score entry is “inactive”.

With YRPFWSA, the amyloid nucleation score entry is “inactive”.

In turn, VMLFY came in with an amyloid nucleation score of 0.845 ± 0.14.

As for YFLDV, the amyloid nucleation score entry is “inactive”.

In the case of FKRWLSSWFKLA, the amyloid nucleation score result is “inactive”.

As to YIEILE, the amyloid nucleation score result is “inactive”.

Take SSYYFFCDGLIFELLSQDNS: the amyloid nucleation score entry was “inactive”.

Turning to HPCFLW, the amyloid nucleation score entry was “inactive”.

For SWRDILVKRHS, the amyloid nucleation score entry is “inactive”.

Take NVTCGRLTPSRDLKHAPVI: the amyloid nucleation score is -0.32 ± 1.1.

With LRPNLQSDVPRRYTMCGTHA, the amyloid nucleation score entry was “inactive”.

Regarding CVVYIGCNATGFKC, the amyloid nucleation score is 1.87 ± 0.059.

For SEICF, the amyloid nucleation score entry is “inactive”.

Turning to IEVLKNLRMVTGLVTL, the amyloid nucleation score entry was “inactive”.

For YNVTFQSPVTSWDNHLIMA, the amyloid nucleation score result is “inactive”.

FGSYFSLKVFYNYF showed an amyloid nucleation score of 2.38 ± 0.055.

As to GVVYWVIRKTIEGSLQFASI, the amyloid nucleation score result was “inactive”.

AAPKGGYPVLCCSVRTGRN returned an amyloid nucleation score of 0.804 ± 0.13.

Turning to YRFTRKDSPSSKVKMISNSW, the amyloid nucleation score result was “inactive”.

In turn, AQKFSIWLCTTICINTDFDF returned an amyloid nucleation score of 2.31 ± 0.06.

LYCRLCVSIFM had an amyloid nucleation score of -0.02 ± 1.1.

On to RSYFGMARGAHFSAHFLLFL, for which the amyloid nucleation score result was “inactive”.

IKVEATRSAVASLRLHI: the amyloid nucleation score result is “inactive”.

YINLVFQNCAVDGRSSKGYW yielded an amyloid nucleation score of 2.67 ± 0.081.

DPFRLLGEY: the amyloid nucleation score entry was “inactive”.

For the substance YLLFMYFLLSSCCSLPALPM, the amyloid nucleation score came out at 1.4 ± 0.12.

Consider RFSYWGKDRSRVSNL, for which the amyloid nucleation score result was “inactive”.

As for FRGEMLFKVQF, the amyloid nucleation score was 0.275 ± 0.27.

With NFGLFREVGLFIRLWIANAA, the amyloid nucleation score result was “inactive”.

In turn, VYYVNS had an amyloid nucleation score of 0.492 ± 0.18.

With SSVVGMSGLG, the amyloid nucleation score result was “inactive”.

For the substance RRLCKYYLQVKSPCIGHDCQ, the amyloid nucleation score entry is “inactive”.

In the case of CIICFGPRNFESRRKQPDWR, the amyloid nucleation score result is “inactive”.

For the substance LGKGICKSTWLQQCRGKSDF, the amyloid nucleation score result is “inactive”.

As to NCNTVKYGMFGAWSNSAV, the amyloid nucleation score is 0.313 ± 0.18.

Regarding MVVQRNDYIVSVFSTLFPRS, the amyloid nucleation score came out at 1.6 ± 0.096.

As for LKVVLYGVHQSCEYMRSRLS, the amyloid nucleation score result is “inactive”.

On to KANDMVFMGGGVLKLGRTLA, for which the amyloid nucleation score result is “inactive”.

Take LNPLMFKMRFLMEYNLAWGV: the amyloid nucleation score was 0.891 ± 0.28.

Take TPSSCSTLCQTDMQDQWRVG: the amyloid nucleation score result was “inactive”.

For TGMNNFMKCLGYMSAHVRLI, the amyloid nucleation score entry is “inactive”.

On to HKLLGVTYYAV, for which the amyloid nucleation score entry was “inactive”.

On to VYECFSSWTWSWVCQCQAVF, for which the amyloid nucleation score entry is “inactive”.

For NHLGM, the amyloid nucleation score result was “inactive”.

Consider NLLDNRIFYHMD, for which the amyloid nucleation score entry was “inactive”.

In the case of RSMSTGNH, the amyloid nucleation score result is “inactive”.

Regarding GRYFSRNYAMCLLLFTTGEV, the amyloid nucleation score result is “inactive”.

Consider IYGVRYWV, for which the amyloid nucleation score entry is “inactive”.

RFPEAVPNKWSGPPTFNPHE: the amyloid nucleation score entry was “inactive”.

NMVISYGVWYCDRKD: the amyloid nucleation score is 0.84 ± 0.2.

GYTMRG: the amyloid nucleation score entry is “inactive”.

For MLCLWFNEFHDVCPT, the amyloid nucleation score entry is “inactive”.

On to CDVVSSDMVFDLS, for which the amyloid nucleation score entry was “inactive”.

On to LAKHSFSFGVYCNSRNSVMY, for which the amyloid nucleation score result was “inactive”.

Turning to IIGKRTSMVAITLFDINGSS, the amyloid nucleation score entry was “inactive”.

As for WCGVSLVL, the amyloid nucleation score entry was “inactive”.

On to RYGFCHYCYRVLDFDVDVRW, for which the amyloid nucleation score was 0.881 ± 0.14.

For the substance SNRYVCLAYYFSE, the amyloid nucleation score came out at 0.154 ± 0.49.

With CRSGCAVYS, the amyloid nucleation score result is “inactive”.

Regarding VCMVEDFCCLPFDMLLYWLT, the amyloid nucleation score result was “inactive”.

In the case of PNDVRNAFFCPPPTKKPTVA, the amyloid nucleation score entry was “inactive”.

Turning to VLADYGTM, the amyloid nucleation score entry was “inactive”.

Consider CSTCISTNFSPY, for which the amyloid nucleation score entry was “inactive”.

In the case of IAPYGRGWKDYLIDSEHVRT, the amyloid nucleation score result was “inactive”.

The substance FFSCYVESNSVMGKDFCRVM showed an amyloid nucleation score of 0.788 ± 0.12.

Consider DHVGADMGLCDNVG, for which the amyloid nucleation score result is “inactive”.

On to VSFNKPLKQVKGPAVTGWKE, for which the amyloid nucleation score result is “inactive”.

With KISSQIYMCRKTNSSDRTMM, the amyloid nucleation score result is “inactive”.

With SAYTTLRDRRCSKGYNMILG, the amyloid nucleation score entry was “inactive”.

Regarding LYPMGFQ, the amyloid nucleation score result is “inactive”.

For GAKIPELSLLMVTPINARSF, the amyloid nucleation score entry is “inactive”.
